The record followed here is publication PMC12102759.

First the molecules themselves.
B1: PEX5 peptide 110-125 (Peroxisomal targeting signal 1 receptor), 16-mer library wild type / PEX14 Pex14 (PEX14 PEX14, residues 16-84) (parent)
chain 1: ADLALSENWAQEFLAA
chain 2: TPGSENVLPREPLIATAVKFLQNSRVRQSPLATRRAFLKKKGLTDEEIDMAFQQSGTAADEPSSLGPAT
B2: RNF115 peptide 69-84 (E3 ubiquitin-protein ligase RNF115), 16-mer library wild type / MDM2 SWIB (MDM2 SWIB/MDM2 domain, residues 17-125) (parent)
chain 1: THFAELWGHLDHTMFF
chain 2: SQIPASEQETLVRPKPLLLKLLKSVGAQKDTYTMKEVLFYLGQYIMTKRLYDEKQQHIVYCSNDLLGDLFGVPSFSVKEHRKIYTMIYRNLVVVNQQESSDSGTSVSEN

In one experiment the parent is B1. The experiment in a line: proteomic peptide phage display deep mutational scan (ProP-PD DMS): M13 P8 16-mer library selected against immobilised GST-tagged bait for four days (rounds), NGS of the eluted pools per day and pseudo-replica. The settings on record: with PEX14 Pex14 (PEX14 PEX14, residues 16-84); bait immobilised on MaxiSorp plates (10 µg), library pre-cleared on GST, 2 h binding at 4 °C, five washes; one round per day, days 1-4; value from days 2 and 3; scale: average fractional NGS count over selection days 2 and 3.
With chain 1 ADEALSENWAQEFLAA, the screen value came to 0.000345.

Turning to chain 1 ADSALSENWAQEFLAA, the screen value is 0.000293.

Turning to chain 1 ADRALSENWAQEFLAA, the screen value was 0.

Consider chain 1 ADVALSENWAQEFLAA, for which the screen value is 0.000442.

Regarding chain 1 LDLALSENWAQEFLAA, the screen value worked out at 0.000249.

With chain 1 HDLALSENWAQEFLAA, the screen value is 0.

On to chain 1 VDLALSENWAQEFLAA, for which the screen value was 0.000338.

Turning to chain 1 RDLALSENWAQEFLAA, the screen value turned out to be 0.00015.

As to chain 1 WDLALSENWAQEFLAA, the screen value amounted to 0.

For the variant chain 1 KDLALSENWAQEFLAA, the screen value came to 0.00027.

For chain 1 ADLALTENWAQEFLAA, the screen value came out at 0.

chain 1 ADLALAENWAQEFLAA: the screen value was found to be 0.000293.

chain 1 ADLALMENWAQEFLAA: the screen value amounted to 0.000156.

For chain 1 ADLALWENWAQEFLAA, the screen value came out at 0.

Consider chain 1 ADLALYENWAQEFLAA, for which the screen value is 0.000301.

Regarding chain 1 ADLALIENWAQEFLAA, the screen value is 0.000313.

Regarding chain 1 ADLAFSENWAQEFLAA, the screen value came out at 0.000301.

chain 1 ADLARSENWAQEFLAA: the screen value was found to be 0.000218.

For chain 1 ADLAESENWAQEFLAA, the screen value came out at 0.

In the case of chain 1 ADLADSENWAQEFLAA, the screen value turned out to be 0.

For the variant chain 1 ADLANSENWAQEFLAA, the screen value worked out at 9.07e-05.

Take chain 1 ADLAISENWAQEFLAA: the screen value is 9.07e-05.

chain 1 ADLALSQNWAQEFLAA: the screen value stood at 0.000175.

On to chain 1 ADLALSENPAQEFLAA, for which the screen value was 0.

Take chain 1 ADLALSENYAQEFLAA: the screen value came to 0.

On to chain 1 ADLALSENMAQEFLAA, for which the screen value stood at 5.43e-05.

For the variant chain 1 ADLALSENQAQEFLAA, the screen value came out at 0.

Regarding chain 1 ADLALSENGAQEFLAA, the screen value was 0.

chain 1 ADLALSENTAQEFLAA: the screen value turned out to be 0.

With chain 1 ADLALSENLAQEFLAA, the screen value is 0.

As to chain 1 AVLALSENWAQEFLAA, the screen value worked out at 0.000407.

As to chain 1 AMLALSENWAQEFLAA, the screen value was found to be 0.000156.

For chain 1 ASLALSENWAQEFLAA, the screen value is 0.

As for chain 1 AILALSENWAQEFLAA, the screen value turned out to be 0.000253.

For chain 1 AFLALSENWAQEFLAA, the screen value came out at 0.

On to chain 1 AGLALSENWAQEFLAA, for which the screen value worked out at 0.000331.

Consider chain 1 ADLALSENWAQEFWAA, for which the screen value turned out to be 0.000163.

As to chain 1 ADLALSENWAQEFGAA, the screen value came to 0.

Regarding chain 1 ADLALSENWAQEFAAA, the screen value came to 0.000388.

For the variant chain 1 ADLALSENWAQEFHAA, the screen value stood at 0.000116.

Take chain 1 ADLALSENWAQEFMAA: the screen value stood at 9.56e-05.

Turning to chain 1 ADLALSENWAQEFLGA, the screen value was found to be 9.87e-05.

As for chain 1 ADLALSENWAQEFLTA, the screen value was determined as 0.000397.

With chain 1 ADLALSENWAQEFLEA, the screen value is 0.000302.

For the variant chain 1 ADLALSENWAQEFLNA, the screen value amounted to 0.000268.

chain 1 ADLALSENWAQEFLSA: the screen value was 0.

In the case of chain 1 ADLALSENWAQEFLYA, the screen value was found to be 9.07e-05.

Consider chain 1 ADLALSENWAQEFLQA, for which the screen value amounted to 0.

As for chain 1 ADLALSENWSQEFLAA, the screen value is 0.000299.

For the variant chain 1 ADLALSENWMQEFLAA, the screen value was determined as 0.

chain 1 ADLALSENWQQEFLAA: the screen value worked out at 0.

Regarding chain 1 ADLALSENWPQEFLAA, the screen value came to 0.000417.

As for chain 1 ADLALSENWNQEFLAA, the screen value worked out at 0.000118.

Consider chain 1 ADLALSENWDQEFLAA, for which the screen value was 0.

Take chain 1 ADLELSENWAQEFLAA: the screen value came to 0.000166.

On to chain 1 ADLSLSENWAQEFLAA, for which the screen value came out at 9.07e-05.

As for chain 1 ADLGLSENWAQEFLAA, the screen value was 0.

chain 1 ADLYLSENWAQEFLAA: the screen value came out at 0.000159.

Regarding chain 1 ADLMLSENWAQEFLAA, the screen value came out at 0.000358.

For the variant chain 1 ADLDLSENWAQEFLAA, the screen value was 0.000198.

Regarding chain 1 ADLALSERWAQEFLAA, the screen value came out at 0.

Take chain 1 ADLALSETWAQEFLAA: the screen value turned out to be 0.000134.

On to chain 1 ADLALSEYWAQEFLAA, for which the screen value amounted to 0.000147.

As to chain 1 ADLALSEKWAQEFLAA, the screen value worked out at 7.71e-05.

For chain 1 ADLALSENWAQNFLAA, the screen value is 0.

With chain 1 ADLALSENWAQQFLAA, the screen value is 0.000147.

On to chain 1 ADLALSENWAQRFLAA, for which the screen value came out at 9.56e-05.

Consider chain 1 ADLALSENWAQKFLAA, for which the screen value came out at 0.000191.

With chain 1 ADLALSENWAQAFLAA, the screen value was found to be 0.000448.

In the case of chain 1 ADLALSENWAQDFLAA, the screen value was found to be 0.000116.

With chain 1 ADLALSENWAQESLAA, the screen value was 9.56e-05.

As to chain 1 ADLALSENWAQELLAA, the screen value came out at 0.000183.

For the variant chain 1 ADLALSENWAQEKLAA, the screen value was determined as 0.

Turning to chain 1 ADLALSENWAQETLAA, the screen value was 0.0002.

Turning to chain 1 ADLALSENWAQEGLAA, the screen value stood at 0.

In the case of chain 1 ADLALSENWAQEPLAA, the screen value turned out to be 0.

For the variant chain 1 ADLALSENWAIEFLAA, the screen value amounted to 0.000186.

Take chain 1 ADLALSENWAGEFLAA: the screen value was found to be 0.000317.

Regarding chain 1 ADLALSENWAKEFLAA, the screen value amounted to 0.

For chain 1 ADLALSENWATEFLAA, the screen value was 0.000165.

Take chain 1 ADLALSENWAPEFLAA: the screen value was 0.

Variants of B2 are the subject of the next experiment. The description is as above. Particulars: with MDM2 SWIB (MDM2 SWIB/MDM2 domain, residues 17-125); bait immobilised on MaxiSorp plates (10 µg), library pre-cleared on GST, 2 h binding at 4 °C, five washes; one round per day, days 1-4; value from days 2 and 3; keep out of graded; scale: average fractional NGS count over selection days 2 and 3.
In the case of chain 1 D11V, the screen value stood at 5.15e-05.

Turning to chain 1 G8I, the screen value was 3.49e-05.

With chain 1 G8L, the screen value is 6.83e-05.

For chain 1 E5M, the screen value was 4.31e-05.

Take chain 1 E5G: the screen value turned out to be 0.00012.

On to chain 1 E5P, for which the screen value was determined as 0.

With chain 1 E5K, the screen value came to 0.

chain 1 E5L: the screen value worked out at 5.37e-05.

For the variant chain 1 E5I, the screen value worked out at 1.29e-05.

In the case of chain 1 E5F, the screen value was 4.65e-05.

As for chain 1 T1K, the screen value is 5.86e-05.

On to chain 1 T1E, for which the screen value worked out at 8.39e-05.

chain 1 T1R: the screen value was found to be 1.6e-05.

Take chain 1 F15E: the screen value was 5.35e-05.

In the case of chain 1 A4R, the screen value was 5.64e-05.

For chain 1 T13F, the screen value is 3.43e-05.

As to chain 1 T13E, the screen value turned out to be 4.86e-05.

As to chain 1 M14R, the screen value was 6.33e-05.

Regarding chain 1 M14K, the screen value turned out to be 7.54e-05.

With chain 1 M14I, the screen value was 5.94e-05.

For the variant chain 1 L10Y, the screen value was 0.

With chain 1 L10A, the screen value was 0.

For chain 1 L10W, the screen value was determined as 0.000123.

For the variant chain 1 L10E, the screen value was determined as 0.

With chain 1 L10G, the screen value worked out at 0.

On to chain 1 L10P, for which the screen value was 0.
